In patent US20110081662A1, “SCREENING METHODS FOR BONE MORPHOGENETIC MIMETICS” (THRASOS THERAPEUTICS, INC., priority 2000, published 2011):

What was measured:
ECD of daf-4 receptor = biological target: T1, ECD of daf-4 receptor (Caenorhabditis elegans, UniProt P50488); assay: Type II receptor-based HTS rapid solid-phase assay; assay type: binding, C. elegans; settings: ECD immobilized on PVDF membrane, 18 h, room temperature
T1 construct: 1 includes additional portions on the N and C terminus; made in house; host or cells: transfected DHFR(-) CHO cell line PJ511.9.8, purified from conditioned medium
T1 sequence (P50488 with tags, fused parts or gaps): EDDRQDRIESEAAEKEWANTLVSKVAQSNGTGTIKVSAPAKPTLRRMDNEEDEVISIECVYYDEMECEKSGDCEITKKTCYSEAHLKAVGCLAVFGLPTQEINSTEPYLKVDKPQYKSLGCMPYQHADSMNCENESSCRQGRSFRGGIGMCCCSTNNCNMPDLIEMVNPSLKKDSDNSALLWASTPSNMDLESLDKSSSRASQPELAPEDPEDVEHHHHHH
Source text: Preparation of type II Receptor ECD: Highly purified extracellular domain (ECD) of the type II receptor daf-4 was used in this assay. The ECD of the daf-4 receptor was cloned and vectors (pCMV5 expression vectors, daf-4 sequence including the mammalian consensus start site and the hexa-histidine sequence tag) are constructed for the expression of this molecule in mammalian cells. In this construct, the ECD has been linked to a hexa-Histadine sequence tag for subsequent purification and detection. The transfected DHFR(−) CHO cell line PJ511.9.8 has been used for the daf-4 expression as outlined below. This cloning method can also be utilized with other bone morphogenetic proteins.
Purification of daf-4 ECD: A purification protocol to process large volumes of conditioned media (3.5 L/week) was developed. The procedure involves initial isolation of daf-4 ECD by using Talon (Pharmacia Tech.) Immobilized metal affinity column. As daf-4 ECD protein is linked to a hexa-His sequence, the protein is bound to the metal affinity column and is subsequently eluted by imidazoic ([…]) containing buffer. […] The purified preparation was analyzed by reversed phase HPLC. […]
HTS assay procedure: BMP-7 binding activity was determined by a rapid solid-phase assay using ^125I-labeled BMP-7 as ligand and highly purified ECD of daf-4 as type II receptor. […]

daf-4 ECD = biological target: T2, daf-4 ECD (Caenorhabditis elegans, UniProt P50488); assay: BMP binding to purified daf-4 ECD (ligand blot, Scatchard analysis); set-up: species or system C. elegans
T2 construct: 1 includes additional portions on the N and C terminus; made in house; host or cells: transfected DHFR(-) CHO cell line PJ511.9.8, purified from conditioned medium
T2 sequence (P50488 with tags, fused parts or gaps): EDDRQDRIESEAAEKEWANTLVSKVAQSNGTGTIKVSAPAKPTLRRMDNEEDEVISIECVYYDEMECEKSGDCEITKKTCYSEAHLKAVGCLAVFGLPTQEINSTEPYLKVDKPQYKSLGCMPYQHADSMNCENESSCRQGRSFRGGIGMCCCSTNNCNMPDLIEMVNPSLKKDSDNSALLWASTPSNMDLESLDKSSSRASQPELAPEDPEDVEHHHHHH
Source text: A novel ligand-blot technique was developed to evaluate the binding of BMP-7 to the purified daf-4 ECD.

bone formation = assay: Subcutaneous implantation assay in rodents (bone formation); assay type: in vivo; settings: rat, subcutaneous implant, day 14, data not shown
Method: Subcutaneous implantation assay in rodents: This assay is based on the ability of BMP-7 to induce bone formation in the rat. […] Briefly, 1.2 mg of bovine bone matrix (collagen carrier) was added to BMP-7 or test peptide or small molecule or BMP-7 and test peptide in 200 μl of 50% acetonitrile, […]. A minimum of 6 animals per group were used. The day of implantation is designated as day 0 of the assay. Implants were removed on day 14 for evaluation. Bone-forming activity in the implants was monitored by the calcium content essentially as described by Reddi, A. H. & Huggins, C. B. (1972) PNAS USA 69, 1601-1605. For histology, implants were fixed in Bouin's solution, embedded in JB4 plastic medium, cut into 1 um sections, and stained by toluidine blue. […] (Data not shown)

B1: BMP-7: homodimeric glycoprotein of the TGF-β superfamily; unlabeled standard (protein)
chain: STGSKQRSQNRSKTPKNQEALRMANVAENSSSDQRQACKKHELYVSFRDLGWQDWIIAPEGYAAYYCEGECAFPLNSYMNATNHAIVQTLVHFINPETVPKPCCAPTQLNAISVLYFDDSSNVILKKYRNMVVRACGCH
inhibition of 125I-labeled BMP-7 binding to the ECD of daf-4 receptor (ECD of daf-4 receptor): 78%
binding to extracellular domain of daf-4 (daf-4 ECD): readily binds
bone formation in implants (bone formation): induced bone formation
